The values below come from patent US20200157537, “Modulating RNA Interactions with Polycomb Repressive Complex 1 (PRC1)” (The General Hospital Corporation, published 2020).

In data set [1] the target is T1, CBX7 (Mus musculus, UniProt Q8VDS3 Q8VDS3:1-158). Nature of the data set: EMSA; low micromolar range, value only in figure; Hill coefficient suggests cooperativity, 2-3 sites; yeast tRNA, Mg2+, on ice; competed by cold Dcaf12l1. To be noted: tags: C-terminal Flag-HA; baculovirus Sf9, anti-FLAG M2 purified; label: radiolabelled. The procedure: (§1) RNA-EMSA assays with CBX7 protein were performed as follows. Labeled RNAs were produced with MEGAscript® T7 Transcription Kit (Life Technologies) and purified from 6% acrylamide TBE-urea gels. Labeled RNAs were prefolded in buffer TE+300 mM NaCl by incubating for 2 min at 95° C., followed by 20 min incubation on ice. Binding reactions were assembled with 20 μl of binding mix (13 mM Tris pH 8.0, 0.2 mM EDTA, 68.8 mM NaCl, 20% Glycerol, 0.2 mg/ml Yeast tRNA, 4 mM DTT, 4 μl 2500 cpm/μl RNA probe). LNA oligonucleotides were added to binding mix at final concentration of 8 μM and samples were pre-incubated on ice for 10 min. After pre-incubation, binding mix samples were combined with 60 μl of purified protein in dialysis buffer (50 mM Tris pH 7.4, 5 mM MgCl₂, 50 mM NaCl, 1 mM DTT, 10% Glycerol, 4 u/μl Protector RNAse inhibitor (Roche)). Control experiments were performed with dialysis buffer only or control proteins—Flag-GFP or GST-Flag-HA, dissolved in dialysis buffer at the highest protein concentration in the particular experiment. After 30 min on ice, the sample was loaded onto a 5% 37:1 acrylamide (Bio-Rad) gel in 0.5× TBE buffer (45 mM Tris-Borate, 1 mM disodium EDTA) and run for 90 min at 250 V at 4° C. Gels were exposed to phosphorimager screens. […]
T1 sequence (Q8VDS3 whole entry, one chain of several): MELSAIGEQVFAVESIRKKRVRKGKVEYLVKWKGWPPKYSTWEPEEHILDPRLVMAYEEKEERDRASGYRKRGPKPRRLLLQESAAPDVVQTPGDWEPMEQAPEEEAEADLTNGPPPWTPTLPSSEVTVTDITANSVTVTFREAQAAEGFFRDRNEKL
For orientation: A gel shift assay detects complexes by their altered migration in electrophoresis.

The target in a further data set is GFP (control protein) (UniProt P42212 P42212:1-238). Nature of the data set: EMSA; control protein. Particulars: tags: Flag; label: radiolabelled. How it is done: RNA-EMSA assays with CBX7 protein were performed as follows. Labeled RNAs were produced with MEGAscript® T7 Transcription Kit (Life Technologies) and purified from 6% acrylamide TBE-urea gels. Labeled RNAs were prefolded in buffer TE+300 mM NaCl by incubating for 2 min at 95° C., followed by 20 min incubation on ice. Binding reactions were assembled with 20 μl of binding mix (13 mM Tris pH 8.0, 0.2 mM EDTA, 68.8 mM NaCl, 20% Glycerol, 0.2 mg/ml Yeast tRNA, 4 mM DTT, 4 μl 2500 cpm/μl RNA probe). LNA oligonucleotides were added to binding mix at final concentration of 8 μM and samples were pre-incubated on ice for 10 min. After pre-incubation, binding mix samples were combined with 60 μl of purified protein in dialysis buffer (50 mM Tris pH 7.4, 5 mM MgCl₂, 50 mM NaCl, 1 mM DTT, 10% Glycerol, 4 u/μl Protector RNAse inhibitor (Roche)). Control experiments were performed with dialysis buffer only or control proteins—Flag-GFP or GST-Flag-HA, dissolved in dialysis buffer at the highest protein concentration in the particular experiment. After 30 min on ice, the sample was loaded onto a 5% 37:1 acrylamide (Bio-Rad) gel in 0.5× TBE buffer (45 mM Tris-Borate, 1 mM disodium EDTA) and run for 90 min at 250 V at 4° C. Gels were exposed to phosphorimager screens. For validation of motif sequences, labeled RNA probes were produced with MEGAshortscript™ T7 Transcription Kit (Life Technologies) and gel purified using 15% TBE-urea gels (Life technologies) Similar RNA-EMSA conditions were applied except 8% 37:1 acrylamide (Bio-Rad) gels replaced 5% gels.

The target in data set [2] is T1, CBX7. The data set can be described thus: EMSA; low micromolar range, value only in figure; positive cooperativity; yeast tRNA, Mg2+, on ice. Particulars: tags: C-terminal Flag-HA; baculovirus Sf9, anti-FLAG M2 purified; label: radiolabelled. How it is done: as §1

B1: Dcaf12l1 3'UTR EMSA probe (ssRNA)
RNA: UCAAAUAGAGGAGCUGGGGAUUAAAAAGAUAGGUCUGAUUAAAGGACUGUGCAGUUCAGAUAAAUAGAGAUAAUGGGAUGCCGUGCGGAUAGAUUGGUUUUCUCC
With B1, the binding result in the data set with CBX7 [1] is given as “binds”; with GFP (control protein) it was “no binding”.

B2: Dusp9 3'UTR EMSA probe (ssRNA)
RNA: GGCCACUUUGACUCGUGUAGACUCCUUCCUGCUUCUCUCACUAGGGCUUAGACUUCUUGGAACUGUAGGGUGUGAACCCAGAGAC
Turning to B2, the binding result with GFP (control protein) is “no binding”; with CBX7 [2] it was “binds”.

B3: Calm2 3'UTR EMSA probe (ssRNA)
RNA: GUAGCUUUUAGGAACUGUCAGCAUGUUGUUGUUGAAGUGUGGAGCUGUAACUCUGCGUGGACUGUGGACAGUCAACAAUAUGUACUUAAAAGUUGCACUAUUGCAA
As for B3, the binding result is listed as “no binding” with GFP (control protein) and “binds” with CBX7 [2].
